{
  "source": "patent US5646120",
  "about": "“Peptide-based inhibitors of HIV replication” (Allelix Biopharmaceuticals, Inc.)",
  "key": {"HIV-1 Tat(1-86)": {"target": "HIV-1 Tat(1-86) (HIV-1, UniProt P04608 P04608:1-86)", "assay": "EMSA; TAR variant stated not to bind tat", "details": "hairpin"}, "[1]": {"target": "T1, Tat basic domain wild-type oligopeptide ([…]) (HIV-1, UniProt P04608 P04608:49-57)", "T1 chain": "RKKRRQRRR", "assay": "EMSA; affinity similar to tat(1-86)", "details": "protein: synthetic; tags: synthetic L-peptide, American Peptide Company; hairpin"}},
  "data": [
    {"binder": "GGAGAACUGAGCCUGGGAGCUCUCUCC (ssRNA)", "note": "[TAR variant not binding tat]", "values": [
      {"measurement": "binding result", "setting": "HIV-1 Tat(1-86)", "value": "no binding"}
    ]},
    {"binder": "GGAGAUCUGAGCCUGGGAGCUCUCUCC (ssRNA)", "note": "[truncated functional TAR RNA]", "values": [
      {"measurement": "binding result", "setting": "[1]", "value": "binds"}
    ]}
  ]
}
